± gives the uncertainty stated by the source.
Experiment: self-splicing fitness, log relative to wild type (ln ratio); higher = more splicing; Tetrahymena group I intron in knt gene, E. coli kanamycin selection, DiMSum; sequences stand for … in CUCUCU…GGAGGGAAAAGUUAUCAGGCAUGCACCUGGUAGCUAGUCUUUAAACCAAUAGAUUGCAUCGGUUUAAAAGGCAAGACCGUCAAAUUGCGGGAAAGGGGUCAACAGCCGUUCAGUACCAAGUCUCAGGGGAAACUUUGAGAUGGCCUUGCAAAGGGUAUGGUAAUAAGCUGACGGACAUGGUCCUAACCACGCAGCCAAGUCCUAAGUCAACAGAUCUUCUGUUGAUAUGGAUGCAGUUCACAGACUAAAUGUCGGUCGGGGAAGAUGUAUUCUUCUCAUAAGAUAUAGUCGGACCUCUCCUUAAUGGGAGCUAGCGGAUGAAGUGAUGCAACACUGGAGCCGCUGGGAACUAAUUUGUAUGCGAAAGUAUAUUGAUUAGUUUUGGAGUACUCGUGGUCG
Method in brief: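 DiMSum derived fitness as the error-weighted combination of fold changes across replicates, kanamycin versus no kanamycin, normalised to wild type. E. coli BL21(DE3) held the library, which randomised all eight P1ex-region intron nucleotides within the knt kanamycin-resistance gene on pET-22b(+). Six replicate transformations grew overnight at 37°C or 30°C on LB agar with or without 25 μg/mL kanamycin, also containing 100 μg/mL carbenicillin, 50 μM IPTG and 0.2% rhamnose, and pooled colonies were amplicon-sequenced on an Illumina HiSeq 2500.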

Sequence	self-splicing fitness (ln) (30 °C)	self-splicing fitness (ln) (37 °C)
UUGCAGCAAUAUUACGUCUG	-3.23 ± 0.16	-2.32 ± 0.18
UUGCAGCAAUAUUACGUGAA	-1.12 ± 0.069	-0.162 ± 0.086
UUGCAGCAAUAUUACGUGCA	-2.15 ± 0.13	-1.27 ± 0.12
UUGCAGCAAUAUUACGUUCG	-1.16 ± 0.049	-0.636 ± 0.071
UUGGAGCAAUAUUACGAAUG	-3.5 ± 0.2	-2.31 ± 0.21
UUGGAGCAAUAUUACGAAUU	-1.68 ± 0.31	-0.925 ± 0.41
UUGGAGCAAUAUUACGACAC	–	-2.36 ± 0.37
UUGGAGCAAUAUUACGACGA	-0.765 ± 0.14	0.309 ± 0.21
UUGGAGCAAUAUUACGACUG	-0.79 ± 0.46	0.294 ± 0.47
UUGGAGCAAUAUUACGAGGG	-2.34 ± 0.22	-2.6 ± 0.49
UUGGAGCAAUAUUACGAUUC	–	-1.85 ± 0.32
UUGGAGCAAUAUUACGAUUG	–	-2.34 ± 0.41
UUGGAGCAAUAUUACGCACA	-0.871 ± 0.32	–
UUGGAGCAAUAUUACGCCCU	–	-1.44 ± 0.46
UUGGAGCAAUAUUACGCCUG	-2.22 ± 0.2	-1.2 ± 0.23
UUGGAGCAAUAUUACGCGAU	-2.54 ± 0.33	-0.423 ± 0.35
UUGGAGCAAUAUUACGCUAG	-2.56 ± 0.23	-1.64 ± 0.2
UUGGAGCAAUAUUACGGAGG	-2.92 ± 0.24	-2.01 ± 0.36
UUGGAGCAAUAUUACGGAUA	-2.85 ± 0.21	-2.04 ± 0.23
UUGGAGCAAUAUUACGGUUA	-2.08 ± 0.45	-1.49 ± 0.25
UUGGAGCAAUAUUACGGUUG	-3.97 ± 0.28	-3.38 ± 0.31
UUGGAGCAAUAUUACGUCGG	-2.64 ± 0.26	-0.784 ± 0.19
UUGGAGCAAUAUUACGUCUG	-2.66 ± 0.17	-0.914 ± 0.22
UUGGAGCAAUAUUACGUGCU	–	-2.64 ± 0.34
UUGUAGCAAUAUUACGAACA	-0.432 ± 0.16	-0.256 ± 0.15
UUGUAGCAAUAUUACGAGUA	-2.13 ± 0.31	-1.22 ± 0.29

Sequence	self-splicing fitness (ln) (30 °C)	self-splicing fitness (ln) (37 °C)
UUGUAGCAAUAUUACGAUAG	-1.52 ± 0.2	-1.16 ± 0.17
UUGUAGCAAUAUUACGCAAC	-2.57 ± 0.41	–
UUGUAGCAAUAUUACGCAAU	-2.98 ± 0.34	–
UUGUAGCAAUAUUACGCAUA	-1.81 ± 0.16	-1.31 ± 0.15
UUGUAGCAAUAUUACGCGAA	-1.02 ± 0.21	-1.73 ± 0.28
UUGUAGCAAUAUUACGCGAG	-1.17 ± 0.11	-0.735 ± 0.099
UUGUAGCAAUAUUACGCGUU	-2.56 ± 0.23	-1.64 ± 0.33
UUGUAGCAAUAUUACGCUGA	-1.09 ± 0.18	-1.05 ± 0.2
UUGUAGCAAUAUUACGGACG	-1.33 ± 0.19	-0.721 ± 0.19
UUGUAGCAAUAUUACGGAGG	-3.76 ± 0.42	-1.87 ± 0.35
UUGUAGCAAUAUUACGGGCA	-1.8 ± 0.21	-0.65 ± 0.2
UUGUAGCAAUAUUACGUACG	-1.24 ± 0.12	-0.138 ± 0.16
UUGUAGCAAUAUUACGUAUA	-2.1 ± 0.17	-0.709 ± 0.15
UUGUAGCAAUAUUACGUGAG	-0.904 ± 0.076	-0.739 ± 0.11
UUGUAGCAAUAUUACGUGGU	-3.35 ± 0.3	-3.67 ± 0.42
UUGUAGCAAUAUUACGUUAC	–	-1.65 ± 0.43
UUUAAGCAAUAUUACGAACC	–	0.0298 ± 0.37
UUUAAGCAAUAUUACGAGGU	-3.65 ± 0.22	-2.04 ± 0.15
UUUAAGCAAUAUUACGAUUC	-2.23 ± 0.23	-0.889 ± 0.19
UUUAAGCAAUAUUACGCAAG	-1.43 ± 0.2	-0.275 ± 0.18
UUUAAGCAAUAUUACGCAGU	-2.7 ± 0.22	-2.36 ± 0.27
UUUAAGCAAUAUUACGCGCC	-1.12 ± 0.18	-1.4 ± 0.26
UUUAAGCAAUAUUACGCUAC	-3.5 ± 0.32	–
UUUAAGCAAUAUUACGGCAC	-2 ± 0.27	-1.87 ± 0.23
UUUAAGCAAUAUUACGGCCA	-0.688 ± 0.11	-0.335 ± 0.15
UUUAAGCAAUAUUACGGGCC	–	-2.57 ± 0.49

From the supplement of paper PMC7877785
